# Laboratory results from patent US20110177071A1 (PERSEID THERAPEUTICS, published 2011).
# Numbering of substitutions follows the chain as printed. Numbers in names are those of the source.
# T1: human CD80-murine Ig fusion protein (human)
# T1 construct: Bought (Ancell #510-820); also called hCD80-mIg; human CD80-murine IgG
# T1 chain: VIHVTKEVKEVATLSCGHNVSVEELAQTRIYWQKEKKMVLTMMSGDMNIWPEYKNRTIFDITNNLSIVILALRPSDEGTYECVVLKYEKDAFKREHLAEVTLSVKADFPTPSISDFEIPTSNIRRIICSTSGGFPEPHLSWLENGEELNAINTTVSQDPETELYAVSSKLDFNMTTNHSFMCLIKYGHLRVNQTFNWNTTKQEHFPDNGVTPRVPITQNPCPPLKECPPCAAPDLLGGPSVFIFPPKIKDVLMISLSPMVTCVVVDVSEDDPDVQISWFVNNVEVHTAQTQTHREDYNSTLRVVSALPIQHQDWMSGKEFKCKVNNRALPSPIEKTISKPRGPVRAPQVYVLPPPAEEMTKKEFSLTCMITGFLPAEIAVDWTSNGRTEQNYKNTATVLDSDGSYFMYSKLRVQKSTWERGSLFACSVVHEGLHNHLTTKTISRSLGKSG
# T2: human CD86-murine Ig fusion protein (human)
# T2 construct: Bought (Ancell #509-820); also called hCD86-mIg
# T2 chain: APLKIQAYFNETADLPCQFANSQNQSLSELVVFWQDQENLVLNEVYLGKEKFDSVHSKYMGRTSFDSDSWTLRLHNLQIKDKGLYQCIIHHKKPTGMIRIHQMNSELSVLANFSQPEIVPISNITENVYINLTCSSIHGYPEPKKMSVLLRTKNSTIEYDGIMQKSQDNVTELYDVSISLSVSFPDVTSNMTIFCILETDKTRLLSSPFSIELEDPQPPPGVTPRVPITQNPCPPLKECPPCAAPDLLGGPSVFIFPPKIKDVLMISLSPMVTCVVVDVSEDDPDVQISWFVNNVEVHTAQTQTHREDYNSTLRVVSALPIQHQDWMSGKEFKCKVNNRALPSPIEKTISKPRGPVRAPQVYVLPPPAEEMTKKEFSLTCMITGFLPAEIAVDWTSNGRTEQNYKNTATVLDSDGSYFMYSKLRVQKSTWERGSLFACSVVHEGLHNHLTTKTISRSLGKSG
# B1: D1T-IgG2 (Fc fusion)
# chain: MHVAQPAVVLASSRGIASFVCEYESPHKANEIRVTVLRQANSQVTEVCAMTYMKGDELTFLDDPFCTGTFSGNQVNLTIQGLRAADTGLYICKVELMYPPPYYLGIGNGTQIYVIDPEPCPDSDERKCCVECPPCPAPPVAGPSVFLFPPKPKDTLMISRTPEVTCVVVDVSHEDPEVQFNWYVDGVEVHNAKTKPREEQFNSTFRVVSVLTVVHQDWLNGKEYKCKVSNKGLPAPIEKTISKTKGQPREPQVYTLPPSREEMTKNQVSLTCLVKGFYPSDIAVEWESNGQPENNYKTTPPMLDSDGSFFLYSKLTVDKSRWQQGNVFSCSVMHEALHNHYTQKSLSLSPG
# B2: D3-9-IgG2 (Fc fusion)
# chain: B1 chain with H27G, N41G, F65I, I106F
# B3: D3-1-IgG2 (Fc fusion)
# chain: B1 chain with E24A, H27G, N41G, F65S, I106F
# B4: D3-5-IgG2 (Fc fusion)
# chain: B1 chain with H27G, N41G, M50A, F65S, I106F
# B5: D3-7-IgG2 (Fc fusion)
# chain: B1 chain with H27G, N41G, D56N, F65S, I106F
# notes: also called D3-07
# B6: D3-16-IgG2 (Fc fusion)
# chain: B1 chain with H27G, N41G, F65S, A85M
# B7: D3-25-IgG2 (Fc fusion)
# chain: B1 chain with H27G, N41G, D56N, F65S
# B8: D3-19-IgG2 (Fc fusion)
# chain: B1 chain with H27G, N41D, D56N, F65S
# B9: D3-32-IgG2 (Fc fusion)
# chain: B1 chain with H27G, Q39K, N41D, F65S
# B10: D3-22-IgG2 (Fc fusion)
# chain: B1 chain with H27G, N41G, D56N, F65S, A85M
# B11: D3-33-IgG2 (Fc fusion)
# chain: B1 chain with H27G, Q39K, N41D, G55E, F65S
# B12: D3-21-IgG2 (Fc fusion)
# chain: B1 chain with H27G, N41D, D56N, F65S, A85M, I106F
# B13: D3-23-IgG2 (Fc fusion)
# chain: B1 chain with H27G, N41D, D56N, F65S, I106F
# B14: D3-26-IgG2 (Fc fusion)
# chain: B1 chain with E24A, H27G, N41D, D56N, F65S, A85M
# B15: D3-28-IgG2 (Fc fusion)
# chain: B1 chain with H27G, N41D, D56N, F65I, A85M
# B16: D3-24-IgG2 (Fc fusion)
# chain: B1 chain with H27G, N41G, D56N, F65S, A85M, I106F
# B17: D3-30-IgG2 (Fc fusion)
# chain: B1 chain with H27G, N41D, F65I, A85M
# B18: D3-8-IgG2 (Fc fusion)
# chain: B1 chain with H27G, N41G, P64S, F65S, I106F
# Biological target: T1, human CD80-murine Ig fusion protein
# Assay: SPR Biacore, hCD80-mIg captured
# Protocol: (§1) All Biacore™ analyses were performed on a Biacore™ 2000 system (GE Healthcare) at room temperature (RT, 25° C.). HBS-EP buffer (10 mM HEPES (pH 7.4), 150 mM NaCl, 3 mM EDTA, 0.005% surfactant P20) was used as the flow buffer for all experiments.
# (§2) Rabbit anti-mouse IgG antibody (GE Healthcare, #BR-1005-14) was immobilized on CM5 sensor chips (GE Healthcare, #BR-1000-14) according to the manufacturer's protocol. Antibody was diluted to 30 μg/ml in immobilization buffer (10 mM sodium acetate, pH 5.0 (BR-1003-51)). At a flow rate of 5 μl/minute, sensor chip CM5 was activated with a 35 μl injection of a mixture of 1-Ethyl-3-[3-dimethylaminopropyl]carbodiimide hydrochloride (EDC) and N-hydroxysuccinimide (NHS) (made by mixing equal volumes of 11.5 mg/ml EDC and 75 mg/ml NHS) (GE Healthcare, #BR-1000-50), followed by a 35 μl injection of undiluted antibody. Un-reacted sites were quenched with 35 μl of 1M ethanolamine-HCL, pH 8.5 (GE Healthcare, #BR-1000-50). […] CTLA-4 ligands human CD80-murine Ig (hCD80-mIg) (Ancell, #510-820) or human CD86-murine Ig (hCD86-mIg) (Ancell, #509-820) were bound to antibody-coated sensor chips by injection of 10 μl or 16 μl, respectively, ligand solution (2 μg/ml protein in HBS-EP buffer [10 mM HEPES pH 7.4, 150 mM NaCl, 3 mM EDTA, 0.005% (v/v) surfactant P-20, GE Healthcare, #BR-1001-88]) at a flow rate of 10 μl/min.
Binding Avidity (Relative to Orencia),Kd,Binder
> 2 fold,< 439 pM,B1
–,439 to 1750 pM,B2
–,439 to 1750 pM,B3
–,439 to 1750 pM,B4
–,439 to 1750 pM,B5
–,439 to 1750 pM,B6
–,439 to 1750 pM,B7
–,439 to 1750 pM,B8
–,439 to 1750 pM,B9
–,439 to 1750 pM,B10
–,439 to 1750 pM,B11
–,439 to 1750 pM,B12
–,439 to 1750 pM,B13
–,439 to 1750 pM,B14
–,439 to 1750 pM,B15
–,439 to 1750 pM,B16
–,439 to 1750 pM,B17
–,439 to 1750 pM,B18

# Biological target: T2, human CD86-murine Ig fusion protein
# Assay: SPR Biacore, hCD86-mIg captured
# Protocol: as §1, §2
Kd,Binding Avidity (Relative to Orencia),Binder
262 to 523 pM,–,B1
< 131 pM,> 40 fold,B2
< 131 pM,> 40 fold,B3
131 to 262 pM,–,B4
< 131 pM,> 40 fold,B5
< 131 pM,> 40 fold,B6
131 to 262 pM,–,B7
131 to 262 pM,–,B8
< 131 pM,> 40 fold,B9
131 to 262 pM,–,B10
< 131 pM,> 40 fold,B11
131 to 262 pM,–,B12
131 to 262 pM,–,B13
131 to 262 pM,–,B14
262 to 523 pM,–,B15
131 to 262 pM,–,B16
131 to 262 pM,–,B17
131 to 262 pM,–,B18
